The data set can be described thus: yeast display, Sf9 membrane polyspecificity reagent, FACS + sequencing; frameworks hold sequencing errors. An outline of the steps:
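In a synthetic yeast display library (Saccharomyces cerevisiae BJ5465), nanobody expression was induced with galactose for 36–48 hours. FACS gates were set low and high (top ~1%) using anti-HA fluorescence for expression and streptavidin fluorescence for binding of the Sf9 membrane reagent. Each polyreactivity label is drawn from the gate of origin.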
As to “QVQLVESGGGLVQAGGSLRLSCAASGFIFAFNAMGWYRQAPGKERELVAAISRSGGSTYADSVKGRFTISRDNEKNTVYLQMNSLKPEDTAVYFCAAYSGVGYLWFDYWGHGTQVTVSS”, the “polyreactivity (PSR sort gate)” value is “low polyreactivity”.

Turning to “QVQLVESGGGLVQAGCSLRLSCAASGSIFKQNTMGWYRQAPGKERELVAAISSGGSTYYADSVKGRFTISRDNAKNTVYLQMNSLKPEDTAVYYCAAVTVIGGEYDYWGQGTQVTVSS”, the “polyreactivity (PSR sort gate)” value was “low polyreactivity”. As for “QVQLVESRGGLVQAGGSLRLSSAASGFTFHGNAMRWYRQAPGKERQLVAGISSSGASTYYADSVKGRFTISRDNAKNTVYLQMNILKPEDTAVYYCAVRYYGRYLRYNYCGQGTQVTVSS”, the entry is “high polyreactivity”; as for “QVQLEDSGGGLVQAGGSLRLSCAASGRIFYTYAMGWYRQAPGKERELVAAINRSGSSTYYADSVKGRFTISRDNAKNNVYLQMNSLKPEDTAVYYCNAQSYLYYGWVLTDVDYWGQGTQVTVSS”, “low polyreactivity”; as for “QVQLVESGGGLVQAGGSLRLSCAASGFTFSKYAMLWYRQAPGKEREFVAAISSRGGRTYYADSVKGRFTISRDNAKNTVYLQMNSLKPEDTAVYYCAVDVHLVTEYDYWGQGTQVTVSS”, “high polyreactivity”. The value for “QVQLVESGGGLVQAGGSLRLSCAASGSTFAWNAMGWYRQAPGKERELVAAISWSGVRTYYADSVKGRFTISRDNAKNTVYLQMNSLKPEDTAVYYCAAPVYWAYTRSMDYWGQGTQVTVSS” was “high polyreactivity”. As for “QVQLVESGGGLVQAGGSLRLSCAASGFTFHYNAMGWYRQAPRKEREFVAAISGSGDRTYYADSVKGRFTISRDNAKNTVYLQMNSLKPEDTAVYYCATSVRQNYFYSYDYWGQGTQVTVSS”, the entry is “high polyreactivity”. For the sequence “QVQLVESGGGLVQAGGSLRLSCAASGNIFSWYAKGWYRQAPGKERELVAAITSGGRTYYADSVKGRFTISRDNAKNTVYLQMNSLKPEDTAVYYCNAVSRLYNRRDYWVQGTQVTVSS”, the “polyreactivity (PSR sort gate)” value was “high polyreactivity”.

On to “QVQLVESGGGLVQAGGSLRLRCADSGRNFVSNAMGWYRQAPGKERELVAAISKSGARTSYADSVKGRFTISRDNAKNTVYLQMNRLKPEDTAVYYCAAPVRWSGGGEYPNYYWGQGTQVTVSS”, for which the “polyreactivity (PSR sort gate)” value is reported as “high polyreactivity”. With “QVQLVESGGGLVQAGGSLRLSCAASGSIFGLYGMGWYRPAAGKERELLAAITGRGGSTYYADSVKGRFTISRDNAKITVYLQMNSLKPEDTAVYYCAALRYTFAGRFDYWGQGTQVNVSS”, the “polyreactivity (PSR sort gate)” value is listed as “high polyreactivity”. As for “QVQLVESGGGLVQAGGSLRLSCAASGFTFTRNAMGWSRPAPGKERELVAAISKRGGTTYYADSVKGRFTISRDNAKNTVYLQMNSLKPEDTAVYYCAKDGGITGGYWGQGTQVSVSS”, the “polyreactivity (PSR sort gate)” value is recorded as “high polyreactivity”. In the case of “QVQLVESGGGLVQAGGSLRLSSAATGRTFASNAMGWYRQAPGKERELVAAIRYRGDRTSYADSVKGRFTISRDNAKNTVYLQMNSLKPEDTAVYYCAAYYNSHGLDYWGQGTQVNVSS”, the “polyreactivity (PSR sort gate)” value is given as “low polyreactivity”. As for “QVQLVDSVGGLVQAGGSLSLSCAASGLIFASNAMGWYRQAPGKERELLATIRRGTSTNYADSVKGRFTISRDNAKNTVYLEMNSLKPEDTAVYYCAADGYTYKFDYWGQGTQVTVSS”, the entry is “low polyreactivity”; as for “QVQLVESGGGLVQAGGSLRLSCAASGSTFVSNAMGWYRQAPGKESELVAAISSSGGRTSYADSVKGRFTISRDHANNTVYLQMNSLKPEDTAVYYCNTLVVPYTDFKTSYNVDYWGQGTQVTVSS”, “low polyreactivity”; as for “QVQLVESVGGLVQAGGSLRLSCAASGSTFEIYAMGWYRQAPGKERELVAVISGGDGSTYYADSVKGRFTISRDNAKNTVYLQMNSLKPEDTAVYYCAADYISPGYWDGEYDCWGQGTQVTVSS”, “low polyreactivity”.

As to “QVQLVESGGGLVQAGGSLRLSCAASGSTFYAYDMGWYRQAPGKERELVAAISSGGSTYYADSVKGRFTISRDNAKNTVYLQMNSLKPEDTAVYYCAPEYTYELEASEPSDYDYWGQGTQVTVSS”, the “polyreactivity (PSR sort gate)” value is “low polyreactivity”. “QVQLVESGGGLVQAGGSLRLSCAPSGSIFRLYAMGWYRQAPGKERELVAAITSSGGRTYYADSVKGRFTISRDNAKNTVYLQINSLKPVDTAVYYCAAVGNRGDDYYWGQGTQVTVSS”: the “polyreactivity (PSR sort gate)” value is recorded as “high polyreactivity”. As for “QVQLVESGGGLVQAGGSLRLSCAASGRILLGNVMGWYRQAPGKERELVAAISIGGNTNYADSVKGRFTISRDNANNTVYLQMNSLKPEDTAVYYCNARSLVFPITFWEYDYWGEGTQVTVSS”, the entry is “low polyreactivity”.

As for “QVQLVESGGCLVQARGSLRLSCAASGFIFRSYAMGWYRPAPGKERELVAAISRSGGSTYYADSVKGRFTISRDNAKNTVYLQMNSLKPEDTAVYYCAAEYRIPYFFTYVYWGQGTKVTVSS”, the “polyreactivity (PSR sort gate)” value is given as “high polyreactivity”. The value for “QVQLVESGGGLVQAGGSLRLSCAASGSIFRGYAMGSYRQAPGKERELVATIDSSAGSTYYADSVKGRCTISRDNAKNTVYLQMNSLKPEDTAVYYCATDPYGYYYSGFDYWGQGTQVTVSS” was “low polyreactivity”; that for “QVQLVESGGGLVQAGGSLRLSCAASGSIFPYNAMGWYRQAPGKERQLVARISWSGGSTYYADSVKGRFTISRDNAKNTVYLQMNSLKPEDTAVYYCAATIIFDAQYRFYYWGQGTQVTVSS” was “low polyreactivity”. The value for “QVQLVESGGGLVQAGGSLRLSCAASGSIFYRNAMGWYRQAPGKERELVAAITSSGGSTYYADSVKGRFTISRDNAKYTVYFQMNSLKPEDTAVYYCNSVVTKFAKCRFLYYYWGQGTQVTVSS” was “high polyreactivity”; that for “QVQLVESGGGLVQAGGSLRLSCAASGFTFPVNTMGWYRQAPGKERELVAAISTSGAGTYYADSVKGRFTISRDNAKNTVYLQMNSLKPEDTAVYYCNADSQPGPYPGIRYDYWGQGTQVTVSS” was “high polyreactivity”.

For “QVQLVESGGGLVQAGGSLRLSCAASGSTFYVYAMGWYRQAPGKERELVAAITTGGSTYYADSVKGRFTISRDNAKNTVYLQMNSLKPEDTAVYYCAADDPDPYDVPSYDYWGHGTQVTVSS”, the “polyreactivity (PSR sort gate)” value is reported as “low polyreactivity”.

As for “QVQLVESGGGLVQAGGSLRLSCAASGLTFGYYAMGWYRQAPGKEREFVASITWSGGTTYYADSVKGRFTISRDNAKNTVYLQMNSLKPEDTAVYYCAAQRSYAYEYWGQGTQVTVSS”, the “polyreactivity (PSR sort gate)” value was “high polyreactivity”. As for “QVQLQESGGGLVEAGGSLRLSCAASGTISYAPHMGWYRQAPGKERELVAGITIGGTTNYADSVKGRFTISRDNAKNTVYLQMISLSPGDTALYYCAAHYDQYTPFYYWGQGSQVTVSS”, the entry is “low polyreactivity”; as for “QVQLVESGGGLVQAGGSLRLSCAASGRTFYRYAMGWYRQAPGKERELVATISSSGRTYYADSVKGRFTISRDNAKNTVYLQMNSLKPEDTAVYYCRFTIKHGSWGQGTQVTVSS”, “high polyreactivity”. As for “QVQLVESGGGLVQAGGSLRLSCAASGFTFRRYAMGWYRPARGKERELVAAIRQSGGSTYADSVKGRFTISRDNAKNTVYLQMNSLKPEDTAVYYCNAGVRAVNRKYDYWGQGTQVTVSS”, the entry is “high polyreactivity”; as for “QVQLVESGGGLFQAGGSLRLSCAASGSTFHYNNMGWYRQAPGKERELVAAISWLGDPTYYADSVKGRFTISRDNAKNTVYLQMNSLKPEDTSVYFCNAVRLSRYRPNPFGYGHWGQGTQVTVSS”, “high polyreactivity”; as for “QVQLVESGGGLVQAGGSLRLSCAASGRTFRGYAMGWYRQAPGKERELVAAISVTGSSTNYADSVKGRFTISRDNAKNTVYLQMNSLKPEDTAVYYCAASYRLYKYDYWGQGTQVTVSS”, “high polyreactivity”. Turning to “QVQLVESGGGLVQAGGSLRLSCAASGSTFGRNAMGWYRQAPGKERELVASISSGGSTYYADSVKGRFTISRDNAKNTVYLQMNSLKPEDTAVYYCARRAYQNWYNYWGQGTQVTVSS”, the “polyreactivity (PSR sort gate)” value is “high polyreactivity”. The value for “QVQLVESGVGLVQAGGSLRLSCAASGSNSGLYAMGWYRQAPGKERELVAAIRWSGGSTRYADSVKGRFTISRDNAKNTVYLLMNSLKPEDTAVYYCAADFYSKFVRFGYWGQGTQVTVSS” was “high polyreactivity”. In the case of “QVQLVESGGGLVQEGGSLRLSCAASGRISYIYAMGWYRQAQGKERELVAAITRGGSTNYADSVKGCFTISRDNAKNTVYLQMNSLKPEDTAVYYCAARRRRSGGYEYDYWGQGTQVTVSS”, the “polyreactivity (PSR sort gate)” value is given as “high polyreactivity”. The value for “QVQLVESGGGLVQAGGSLRLSCAASGSIFDPNAMGWYRQAPGKERELVAAISTSTGNTYYADSVKGRCTISRDNAKNTVYLQMNSLKPEDTAVYYCAAKGTPSYGSYHYDMDYWGQGTQVTVSS” was “low polyreactivity”; that for “QVQLVESGGGLVQAGGSLRFSCAASGLIFGSYTMGWSRQAPGKERELVAGISRGGGITYYADSVKGRFTISRDNAKNTVYLQMNSLKPEDTAVYYCAAGYFSYSPYGSYKFGYWGQGTQVTVSS” was “high polyreactivity”; that for “QVQLVESGGGLVQAGGSLRLSCAASGSIFPGNAMGWYRQAPGKERELVASINWSGGSTYYADSVKGRFTISRDNANNTVYLQMNSLKPEDTAVYYCNADPGYYDYDYWGQGTQVTVSS” was “low polyreactivity”. As for “QVHLVQSGGGLVQAGGSLRLSCAASGSIYVAYEMGWYRQAPGKERELVAAINFDGTSTYYADSVKGRFTISRDNAKNTVYLQMNSLKPEDTAVYYCNKRVSPTYKGQYDYWGQGTQVTVSS”, the entry is “low polyreactivity”. As for “QVHLVESWAGLVQAGGSLRLSGAASGTNVMGWYRQAPGKERELDAAISGSGGSTYYADSVKGRFTISRDNAKNTVYLQMNSLKPEDTAVYYCAADSIQYTARPYDYWGQGTQVTVSS”, the entry is “low polyreactivity”; as for “QVQIVESGGGLVQAGGSLSLSCAASGRTFAGNAMGWYRQAPGKEMELVASISSSGGRTYYADSVKGRFTISRDNAKNTVYLQMISLKPEDTAVYYCAARGGYVSTWTRFSKYNYWGQGTQVTVSS”, “high polyreactivity”. As for “QVQLVESGGGLVQAGGSLRLSCAASGSIFDVYTMGWYRQAPGKERELVAAINTGGGSTYYADSVKGRFTISRDNAKNTVYLQMNSLKPEDTAVYFCAASVYHYGPLYYWGQGTQVTVSS”, the “polyreactivity (PSR sort gate)” value is listed as “low polyreactivity”.

In the case of “QVQLVESGGGLVQAGGSLRLSCAASGFIFSWYAMGWYRQAPGKERELVARISSSGGNTYYADSVKGRFTISRDNAKNTVYLQMNSLKPEDTAVYYCAAGYRYRYDYWGQGTQVTVSS”, the “polyreactivity (PSR sort gate)” value is reported as “high polyreactivity”.

For the origin of these results see the nanobody polyreactivity screen of Harvey et al. (2022).
